Results reported in the supplement of paper PMC5998384.

Tests used:
[1] = test system: HeLa Kyoto; test: solubility in G1/S (NP-40 vs SDS abundance) (log2 ratio); higher = more soluble; conditions: cell cycle stage: G1/S
[2] = test system: HeLa Kyoto; test: thermal stability score vs G1/S (z-score of summed log2 fold changes over temperatures); higher = more thermally stable than in G1/S
[3] = test system: HeLa Kyoto; test: melting temperature (median over replicates), in situ; higher = more thermally stable
[4] = test system: HeLa Kyoto; test: solubility change mitosis vs G1/S (difference of NP-40 vs SDS log2 ratios) (log2 ratio difference); higher = more soluble in mitosis
[5] = cell cycle stage: early G1 (4.5 h after nocodazole release)
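Throughout, for melting temperature (median over replicates), in situ: HeLa Kyoto cells synchronized by double thymidine or nocodazole block, proteins quantified by TMT10plex mass spectrometry, three independent biological replicates.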
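Throughout, for solubility change mitosis vs G1/S (difference of NP-40 vs SDS log2 ratios): synchronized HeLa Kyoto cells (double thymidine block for G1/S, nocodazole release for mitosis), protein amounts in NP-40 versus SDS lysates quantified by mass spectrometry, three biological replicates.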
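Throughout, for solubility in G1/S (NP-40 vs SDS abundance): HeLa Kyoto cells arrested at G1/S by double thymidine block, proteins quantified by TMT10plex mass spectrometry in mild NP-40 versus SDS extracts, three biological replicates.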
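Throughout, for thermal stability score vs G1/S (z-score of summed log2 fold changes over temperatures): synchronized HeLa Kyoto cells, proteins quantified by TMT10plex mass spectrometry, three biological replicates, mitosis taken 0.5 h after nocodazole release, G1/S directly after double thymidine block.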

Row | Sequence | solubility in G1/S (log2) [1] | thermal stability score [2, 5] | thermal stability score ([2]; cell cycle stage: mitosis) | melting temperature ([3]; cell cycle stage: G1/S) [°C] | melting temperature ([3]; cell cycle stage: mitosis) [°C] | solubility change mitosis (log2) [4]
1 | MATSMAAASGRFESAKSIEERKEQTRNARAEVLRQAKANFEKEERRKELKRLRGEDTWMLPDVNERIEQFSQEHSVKKKKKKDKHSKKAKKEKKKKSKKQKYEKNNESSDSSSSSEDEWVEAVPSQTPDKEKAWKVKDEKSGKDDTQIIKRDEWMTVDFMSVKTVSSSSLKAEKETMRKIEQEKNQALEQSKLMERELNPYWKDGGTGLPPEDCSVSSITKVSVVEDGGLSWLRKSYLRMKEQAEKQSRNFEDIVAERYGSMEIFQSKLEDAEKAASTKEDYRRERWRKPTYSDKAQNCQESRESDLVKYGNSSRDRYATTDTAKNSNNEKFIGDEKDKRPGSLETCRRESNPRQNQEFSFGNLRAKFLRPSDDEELSFHSKGRKFEPLSSSSALVAQGSLCSGFRKPTKNSEERLTSWSRSDGRGDKKHSNQKPSETSTDEHQHVPEDPREKSQDEVLRDDPPKKEHLRDTKSTFAGSPERESIHILSVDEKNKLGAKIIKAEMMGNMELAEQLKVQLEKANKFKETITQIPKKSGVENEDQQEVILVRTDQSGRVWPVNTPGKSLESQGGRRKRQMVSTHEERERVRYFHDDDNLSLNDLVKNEKMGTAENQNKLFMRMASKFMGKTDGDYYTLDDMFVSKAAERERLGEEEENQRKKAIAEHRSLAAQMEKCLYCFDSSQFPKHLIVAIGVKVYLCLPNVRSLTEGHCLIVPLQHHRAATLLDEDIWEEIQMFRKSLVKMFEDKGLDCIFLETNMSMKKQYHMVYECIPLPKEVGDMAPIYFKKAIMESDEEWSMNKKLIDLSSKDIRKSVPRGLPYFSVDFGLHGGFAHVIEDQHKFPHYFGKEIIGGMLDIEPRLWRKGIRESFEDQRKKALQFAQWWKPYDFTKSKNY [CWF19L2] | -0.379 | 0.398 | 2.26 | 49.4 | 49.2 | 0.121
2 | MATSVGHRCLGLLHGVAPWRSSLHPCEITALSQSLQPLRKLPFRAFRTDARKIHTAPARTMFLLRPLPILLVTGGGYAGYRQYEKYRERELEKLGLEIPPKLAGHWEVALYKSVPTRLLSRAWGRLNQVELPHWLRRPVYSLYIWTFGVNMKEAAVEDLHHYRNLSEFFRRKLKPQARPVCGLHSVISPSDGRILNFGQVKNCEVEQVKGVTYSLESFLGPRMCTEDLPFPPAASCDSFKNQLVTREGNELYHCVIYLAPGDYHCFHSPTDWTVSHRRHFPGSLMSVNPGMARWIKELFCHNERVVLTGDWKHGFFSLTAVGATNVGSIRIYFDRDLHTNSPRHSKGSYNDFSFVTHTNREGVPMRKGEHLGEFNLGSTIVLIFEAPKDFNFQLKTGQKIRFGEALGSL [PISD] | -0.127 | -1.35 | -0.739 | 51.7 | 50.9 | -0.00593
3 | MATTATCTRFTDDYQLFEELGKGAFSVVRRCVKKTSTQEYAAKIINTKKLSARDHQKLEREARICRLLKHPNIVRLHDSISEEGFHYLVFDLVTGGELFEDIVAREYYSEADASHCIHQILESVNHIHQHDIVHRDLKPENLLLASKCKGAAVKLADFGLAIEVQGEQQAWFGFAGTPGYLSPEVLRKDPYGKPVDIWACGVILYILLVGYPPFWDEDQHKLYQQIKAGAYDFPSPEWDTVTPEAKNLINQMLTINPAKRITADQALKHPWVCQRSTVASMMHRQETVECLRKFNARRKLKGAILTTMLVSRNFSAAKSLLNKKSDGGVKKRKSSSSVHLMPQSNNKNSLVSPAQEPAPLQTAMEPQTTVVHNATDGIKGSTESCNTTTEDEDLKGRVPEGRSSRDRTAPSAGMQPQPSLCSSAMRKQEIIKITEQLIEAINNGDFEAYTKICDPGLTSFEPEALGNLVEGMDFHKFYFENLLSKNSKPIHTTILNPHVHVIGEDAACIAYIRLTQYIDGQGRPRTSQSEETRVWHRRDGKWLNVHYHCSGAPAAPLQ [CAMK2G] | -0.382 | -0.442 | -0.0382 | 49.6 | 48.9 | 0.162
4 | MATTGTPTADRGDAAATDDPAARFQVQKHSWDGLRSIIHGSRKYSGLIVNKAPHDFQFVQKTDESGPHSHRLYYLGMPYGSRENSLLYSEIPKKVRKEALLLLSWKQMLDHFQATPHHGVYSREEELLRERKRLGVFGITSYDFHSESGLFLFQASNSLFHCRDGGKNGFMVSPMKPLEIKTQCSGPRMDPKICPADPAFFSFINNSDLWVANIETGEERRLTFCHQGLSNVLDDPKSAGVATFVIQEEFDRFTGYWWCPTASWEGSEGLKTLRILYEEVDESEVEVIHVPSPALEERKTDSYRYPRTGSKNPKIALKLAEFQTDSQGKIVSTQEKELVQPFSSLFPKVEYIARAGWTRDGKYAWAMFLDRPQQWLQLVLLPPALFIPSTENEEQRLASARAVPRNVQPYVVYEEVTNVWINVHDIFYPFPQSEGEDELCFLRANECKTGFCHLYKVTAVLKSQGYDWSEPFSPGEDEFKCPIKEEIALTSGEWEVLARHGSKIWVNEETKLVYFQGTKDTPLEHHLYVVSYEAAGEIVRLTTPGFSHSCSMSQNFDMFVSHYSSVSTPPCVHVYKLSGPDDDPLHKQPRFWASMMEAASCPPDYVPPEIFHFHTRSDVRLYGMIYKPHALQPGKKHPTVLFVYGGPQVQLVNNSFKGIKYLRLNTLASLGYAVVVIDGRGSCQRGLRFEGALKNQMGQVEIEDQVEGLQFVAEKYGFIDLSRVAIHGWSYGGFLSLMGLIHKPQVFKVAIAGAPVTVWMAYDTGYTERYMDVPENNQHGYEAGSVALHVEKLPNEPNRLLILHGFLDENVHFFHTNFLVSQLIRAGKPYQLQIYPNERHSIRCPESGEHYEVTLLHFLQEYL [DPP9] | -0.0578 | -0.344 | -0.63 | 51.3 | 51.1 | -0.171
5 | MAVADLALIPDVDIDSDGVFKYVLIRVHSAPRSGAPAAESKEIVRGYKWAEYHADIYDKVSGDMQKQGCDCECLGGGRISHQSQDKKIHVYGYSMAYGPAQHAISTEKIKAKYPDYEVTWANDGY [PHPT1] | 0.345 | -0.712 | -1.99 | 52.9 | 53.5 | 0.028
6 | MAVARVDAALPPGEGSVVNWSGQGLQKLGPNLPCEADIHTLILDKNQIIKLENLEKCKRLIQLSVANNRLVRMMGVAKLTLLRVLNLPHNSIGCVEGLKELVHLEWLNLAGNNLKAMEQINSCTALQHLDLSDNNISQIGDLSKLVSLKTLLLHGNIITSLRMAPAYLPRSLAILSLAENEIRDLNEISFLASLTELEQLSIMNNPCVMATPSIPGFDYRPYIVSWCLNLRVLDGYVISQKESLKAEWLYSQGKGRAYRPGQHIQLVQYLATVCPLTSTLGLQTAEDAKLEKILSKQRFHQRQLMNQSQNEELSPLVPVETRASLIPEHSSPVQDCQISQESEPVIQVNSWVGINSNDDQLFAVKNNFPASVHTTRYSRNDLHLEDIQTDEDKLNCSLLSSESTFMPVASGLSPLSPTVELRLQGINLGLEDDGVADESVKGLESQVLDKEEEQPLWAANENSVQMMRSEINTEVNEKAGLLPCPEPTIISAILKDDNHSLTFFPESTEQKQSDIKKPENTQPENKETISQATSEKLPMILTQRSVALGQDKVALQKLNDAATKLQACWRGFYARNYNPQAKDVRYEIRLRRMQEHIVCLTDEIRRLRKERDEERIKKFVQEEAFRFLWNQVRSLQVWQQTVDQRLSSWHTDVPPISSTLVPSKHPLFTQSQESSCDQNADWFIASDVAPQEKSLPEFPDSGFHSSLTEQVHSLQHSLDFEKSSTEGSESSIMGNSIDTVRYGKESDLGDVSEEHGEWNKESSNNEQDNSLLEQYLTSVQQLEDADERTNFDTETRDSKLHIACFPVQLDTLSDGASVDESHGISPPLQGEISQTQENSKLNAEVQGQQPECDSTFQLLHVGVTV [CEP97] | 0.0763 | 0.503 | 1.24 | 49.6 | 49.9 | -0.207
7 | MAVAVAMAGALIGSEPGPAEELAKLEYLSLVSKVCTELDNHLGINDKDLAEFVISLAEKNTTFDTFKASLVKNGAEFTDSLISNLLRLIQTMRPPAKPSTSKDPVVKPKTEKEKLKELFPVLCQPDNPSVRTMLDEDDVKVAVDVLKELEALMPSAAGQEKQRDAEHRDRTKKKKRSRSRDRNRDRDRDRERNRDRDHKRRHRSRSRSRSRTRERNKVKSRYRSRSRSQSPPKDRKDRDKYGERNLDRWRDKHVDRPPPEEPTIGDIYNGKVTSIMQFGCFVQLEGLRKRWEGLVHISELRREGRVANVADVVSKGQRVKVKVLSFTGTKTSLSMKDVDQETGEDLNPNRRRNLVGETNEETSMRNPDRPTHLSLVSAPEVEDDSLERKRLTRISDPEKWEIKQMIAANVLSKEEFPDFDEETGILPKVDDEEDEDLEIELVEEEPPFLRGHTKQSMDMSPIKIVKNPDGSLSQAAMMQSALAKERRELKQAQREAEMDSIPMGLNKHWVDPLPDAEGRQIAANMRGIGMMPNDIPEWKKHAFGGNKASYGKKTQMSILEQRESLPIYKLKEQLVQAVHDNQILIVIGETGSGKTTQITQYLAEAGYTSRGKIGCTQPRRVAAMSVAKRVSEEFGCCLGQEVGYTIRFEDCTSPETVIKYMTDGMLLRECLIDPDLTQYAIIMLDEAHERTIHTDVLFGLLKKTVQKRQDMKLIVTSATLDAVKFSQYFYEAPIFTIPGRTYPVEILYTKEPETDYLDASLITVMQIHLTEPPGDILVFLTGQEEIDTACEILYERMKSLGPDVPELIILPVYSALPSEMQTRIFDPAPPGSRKVVIATNIAETSLTIDGIYYVVDPGFVKQKVYNSKTGIDQLVVTPISQAQAKQRAGRAGRTGPGKCYRLYTERAYRDEMLTTNVPEIQRTNLASTVLSLKAMGINDLLSFDFMDAPPMETLITAMEQLYTLGALDDEGLLTRLGRRMAEFPLEPMLCKMLIMSVHLGCSEEMLTIVSMLSVQNVFYRPKDKQALADQKKAKFHQTEGDHLTLLAVYNSWKNNKFSNPWCYENFIQARSLRRAQDIRKQMLGIMDRHKLDVVSCGKSTVRVQKAICSGFFRNAAKKDPQEGYRTLIDQQVVYIHPSSALFNRQPEWVVYHELVLTTKEYMREVTTIDPRWLVEFAPAFFKVSDPTKLSKQKKQQRLEPLYNRYEEPNAWRISRAFRRR [DHX8] | -0.655 | 1.86 | 4.58 | 49.9 | 50.7 | 0.24
8 | MAVDITLLFRASVKTVKTRNKALGVAVGGGVDGSRDELFRRSPRPKGDFSSRAREVISHIGKLRDFLLEHRKDYINAYSHTMSEYGRMTDTERDQIDQDAQIFMRTCSEAIQQLRTEAHKEIHSQQVKEHRTAVLDFIEDYLKRVCKLYSEQRAIRVKRVVDKKRLSKLEPEPNTKTRESTSSEKVSQSPSKDSEENPATEERPEKILAETQPELGTWGDGKGEDELSPEEIQMFEQENQRLIGEMNSLFDEVRQIEGRVVEISRLQEIFTEKVLQQEAEIDSIHQLVVGATENIKEGNEDIREAIKNNAGFRVWILFFLVMCSFSLLFLDWYDS [STX18] | 0.186 | 0.0563 | -0.262 | 50.1 | 50.8 | -0.0525
9 | MAVEELQSIIKRCQILEEQDFKEEDFGLFQLAGQRCIEEGHTDQLLEIIQNEKNKVIIKNMGWNLVGPVVRCLLCKDKEDSKRKVYFLIFDLLVKLCNPKELLLGLLELIEEPSGKQISQSILLLLQPLQTVIQKLHNKAYSIGLALSTLWNQLSLLPVPYSKEQIQMDDYGLCQCCKALIEFTKPFVEEVIDNKENSLENEKLKDELLKFCFKSLKCPLLTAQFFEQSEEGGNDPFRYFASEIIGFLSAIGHPFPKMIFNHGRKKRTWNYLEFEEEENKQLADSMASLAYLVFVQGIHIDQLPMVLSPLYLLQFNMGHIEVFLQRTEESVISKGLELLENSLLRIEDNSLLYQYLEIKSFLTVPQGLVKVMTLCPIETLRKKSLAMLQLYINKLDSQGKYTLFRCLLNTSNHSGVEAFIIQNIKNQIDMSLKRTRNNKWFTGPQLISLLDLVLFLPEGAETDLLQNSDRIMASLNLLRYLVIKDNENDNQTGLWTELGNIENNFLKPLHIGLNMSKAHYEAEIKNSQEAQKSKDLCSITVSGEEIPNMPPEMQLKVLHSALFTFDLIESVLARVEELIEIKTKSTSEENIGIK [GLMN] | 0.0671 | 0.45 | 0.785 | 52.2 | 51.3 | -0.21
